target: T1, OTULIN (OTU deubiquitinase with linear linkage specificity, FAM105B), His-tagged, biotin-labelled (human, UniProt Q96BN8 1-352, biotin (label; sites not stated)); assay: peptide or protein array; HuProt human proteome microarray; 5 ug/5 ml biotin-labelled LUBAC or OTULIN in solution, 1 h at room temperature; Cy5-streptavidin, scanned at 635 nm; BSA as negative control; hits: Z-score >= 3 and I_(Mean_Ratio) >= 1.4; settings: both partners purified
T1 construct: OTULIN (FAM105B), cDNA in pET28a; also called HIS-OTULIN; source: E. coli BL21 (DE3), purified (His-tag Purification Resin), labelled with biotin; not shown: His6, N-terminal, kept

Row | Binder | binding result
1 | ODAM (natural protein, human, UniProt A1E959 16-279, looked up, ODAM; protein on the human proteome microarray; source: spotted on the HuProt human proteome microarray) APLIPQRLMSASNSNELLLNLNNGQLLPLQLQGPLNSWIPPFSGILQQQQQAQIPGLSQFSLSALDQFAGLLPNQIPLTGEASFAQGAQAGQVDPLQLQTPPQTQPGPSHVMPYVFSFKMPQEQGQMFQYYPVYMVLPWEQPQQTVPRSPQQTRQQQYEEQIPFYAQFGYIPQLAEPAISGGQQQLAFDPQLGTAPEIAVMSTGEEIPYLQKEAINFRHDSAGVFMPSTSPKPSTTNVFTSAVDQTITPELPEEKDKTDSLREP | binds
2 | MSI2 (natural protein, MSI2; protein on the human proteome microarray; source: spotted on the HuProt human proteome microarray) not shown | binds
3 | LOR (natural protein, human, UniProt P23490 1-312, looked up, LOR; protein on the human proteome microarray; source: spotted on the HuProt human proteome microarray) MSYQKKQPTPQPPVDCVKTSGGGGGGGGSGGGGCGFFGGGGSGGGSSGSGCGYSGGGGYSGGGCGGGSSGGGGGGGIGGCGGGSGGSVKYSGGGGSSGGGSGCFSSGGGGSGCFSSGGGGSSGGGSGCFSSGGGGSSGGGSGCFSSGGGGFSGQAVQCQSYGGVSSGGSSGGGSGCFSSGGGGGSVCGYSGGGSGCGGGSSGGSGSGYVSSQQVTQTSCAPQPSYGGGSSGGGGSGGSGCFSSGGGGGSSGCGGGSSGIGSGCIISGGGSVCGGGSSGGGGGGSSVGGSGSGKGVPICHQTQQKQAPTWPSK | binds
4 | OVOL2 (natural protein, human, UniProt Q9BRP0 1-275, looked up, OVOL2; protein on the human proteome microarray; source: spotted on the HuProt human proteome microarray) MPKVFLVKRRSLGVSVRSWDELPDEKRADTYIPVGLGRLLHDPPEDCRSDGGSSSGSGSSSAGEPGGAESSSSPHAPESETPEPGDAEGPDGHLATKQRPVARSKIKFTTGTCSDSVVHSCDLCGKGFRLQRMLNRHLKCHNQVKRHLCTFCGKGFNDTFDLKRHVRTHTGIRPYKCNVCNKAFTQRCSLESHLKKIHGVQQQYAYKQRRDKLYVCEDCGYTGPTQEDLYLHVNSAHPGSSFLKKTSKKLAALLQGKLTSAHQENTSLSEEEERK | binds
5 | MPST (natural protein, human, UniProt P25325 1-297, looked up, MPST; protein on the human proteome microarray; source: spotted on the HuProt human proteome microarray) MASPQLCRALVSAQWVAEALRAPRAGQPLQLLDASWYLPKLGRDARREFEERHIPGAAFFDIDQCSDRTSPYDHMLPGAEHFAEYAGRLGVGAATHVVIYDASDQGLYSAPRVWWMFRAFGHHAVSLLDGGLRHWLRQNLPLSSGKSQPAPAEFRAQLDPAFIKTYEDIKENLESRRFQVVDSRATGRFRGTEPEPRDGIEPGHIPGTVNIPFTDFLSQEGLEKSPEEIRHLFQEKKVDLSKPLVATCGSGVTACHVALGAYLCGKPDVPIYDGSWVEWYMRARPEDVISEGRGKTH | binds
6 | NAT6 (natural protein, human, UniProt Q93015 1-286, looked up, NAT6; protein on the human proteome microarray; source: spotted on the HuProt human proteome microarray) MELILSTSPAELTLDPACQPKLPLDSTCQPEMTFNPGPTELTLDPEHQPEETPAPSLAELTLEPVHRRPELLDACADLINDQWPRSRTSRLHSLGQSSDAFPLCLMLLSPHPTLEAAPVVVGHARLSRVLNQPQSLLVETVVVARALRGRGFGRRLMEGLEVFARARGFRKLHLTTHDQVHFYTHLGYQLGEPVQGLVFTSRRLPATLLNAFPTAPSPRPPRKAPNLTAQAAPRGPKGPPLPPPPPLPECLTISPPVPSGPPSKSLLETQYQNVRGRPIFWMEKDI | binds
7 | NUDT16L1 (natural protein, human, UniProt Q9BRJ7 1-211, looked up, NUDT16L1; protein on the human proteome microarray; source: spotted on the HuProt human proteome microarray) MSTAAVPELKQISRVEAMRLGPGWSHSCHAMLYAANPGQLFGRIPMRFSVLMQMRFDGLLGFPGGFVDRRFWSLEDGLNRVLGLGLGCLRLTEADYLSSHLTEGPHRVVAHLYARQLTLEQLHAVEISAVHSRDHGLEVLGLVRVPLYTQKDRVGGFPNFLSNAFVSTAKCQLLFALKVLNMMPEEKLVEALAAATEKQKKALEKLLPASS | binds
8 | MAGEB1 (natural protein, human, UniProt P43366 1-347, looked up, MAGEB1; protein on the human proteome microarray; source: spotted on the HuProt human proteome microarray) MPRGQKSKLRAREKRRKAREETQGLKVAHATAAEKEECPSSSPVLGDTPTSSPAAGIPQKPQGAPPTTTAAAAVSCTESDEGAKCQGEENASFSQATTSTESSVKDPVAWEAGMLMHFILRKYKMREPIMKADMLKVVDEKYKDHFTEILNGASRRLELVFGLDLKEDNPSGHTYTLVSKLNLTNDGNLSNDWDFPRNGLLMPLLGVIFLKGNSATEEEIWKFMNVLGAYDGEEHLIYGEPRKFITQDLVQEKYLKYEQVPNSDPPRYQFLWGPRAYAETTKMKVLEFLAKMNGATPRDFPSHYEEALRDEEERAQVRSSVRARRRTTATTFRARSRAPFSRSSHPM | binds
9 | MIF (natural protein, human, UniProt P14174 1-115, looked up, MIF; protein on the human proteome microarray; source: spotted on the HuProt human proteome microarray) MPMFIVNTNVPRASVPDGFLSELTQQLAQATGKPPQYIAVHVVPDQLMAFGGSSEPCALCSLHSIGKIGGAQNRSYSKLLCGLLAERLRISPDRVYINYYDMNAANVGWNNSTFA | binds

Results, then the binder that gave them:

Row | binding result | Binder
10 | binds | NABP1 (natural protein, human, UniProt Q96AH0 1-204, looked up, NABP1; protein on the human proteome microarray; source: spotted on the HuProt human proteome microarray) MNRVNDPLIFIRDIKPGLKNLNVVFIVLEIGRVTKTKDGHEVRSCKVADKTGSITISVWDEIGGLIQPGDIIRLTRGYASMWKGCLTLYTGRGGELQKIGEFCMVYSEVPNFSEPNPDYRGQQNKGAQSEQKNNSMNSNMGTGTFGPVGNGVHTGPESREHQFSHAGRSNGRGLINPQLQGTASNQTVMTTISNGRDPRRAFKR
11 | binds | NME2 (natural protein, human, UniProt P22392 1-152, looked up, NME2; protein on the human proteome microarray; source: spotted on the HuProt human proteome microarray) MANLERTFIAIKPDGVQRGLVGEIIKRFEQKGFRLVAMKFLRASEEHLKQHYIDLKDRPFFPGLVKYMNSGPVVAMVWEGLNVVKTGRVMLGETNPADSKPGTIRGDFCIQVGRNIIHGSDSVKSAEKEISLWFKPEELVDYKSCAHDWVYE
12 | binds | KLHDC9 (natural protein, human, UniProt Q8NEP7 1-349, looked up, KLHDC9; protein on the human proteome microarray; source: spotted on the HuProt human proteome microarray) MAVAVPPGRAAGSGWAWRPVARDALLARAFHSCTELRGRFYLVGGLLAGGAREPSSDTVVFDPARGQAVRLGARGSPPRSHHDAAPVDGRWLCVVGGWDGSRRLATVTALDTERGVWEAWTGTPGDCPPAGLSSHTCTRISDRELQVAGREGGIHTQRRYGSIYTLRLDPSARTYCYKQEGCHTASRSGHCAALLQTPGPHPGHQLLLFGGCNLAEPEVAGHWSHGKIKEEPPVAPHLMEQLARLVSSGQGSQKGPHGLRHHSCSVVGPFAVLFGGETLTRARDTICNDLYIYDTRTSPPLWFHFPCADRGMKRMGHRTCLWNDQLYLVGGFGEDGRTASPQVCILDFI
13 | binds | NECAP2 (natural protein, human, UniProt Q9NVZ3 1-263, looked up, NECAP2; protein on the human proteome microarray; source: spotted on the HuProt human proteome microarray) MEESGYESVLCVKPDVHVYRIPPRATNRGYRAAEWQLDQPSWSGRLRITAKGQMAYIKLEDRTSGELFAQAPVDQFPGTAVESVTDSSRYFVIRIEDGNGRRAFIGIGFGDRGDAFDFNVALQDHFKWVKQQCEFAKQAQNPDQGPKLDLGFKEGQTIKLNIANMKKKEGAAGNPRVRPASTGGLSLLPPPPGGKTSTLIPPPGEQLAVGGSLVQPAVAPSSGGAPVPWPQPNPATADIWGDFTKSTGSTSSQTQPGTGWVQF
14 | binds | NTPCR (natural protein, human, UniProt Q9BSD7 1-190, looked up, NTPCR; protein on the human proteome microarray; source: spotted on the HuProt human proteome microarray) MARHVFLTGPPGVGKTTLIHKASEVLKSSGVPVDGFYTEEVRQGGRRIGFDVVTLSGTRGPLSRVGLEPPPGKRECRVGQYVVDLTSFEQLALPVLRNADCSSGPGQRVCVIDEIGKMELFSQLFIQAVRQTLSTPGTIILGTIPVPKGKPLALVEEIRNRKDVKVFNVTKENRNHLLPDIVTCVQSSRK
15 | binds | NUDT6 (natural protein, human, UniProt P53370 1-316, looked up, NUDT6; protein on the human proteome microarray; source: spotted on the HuProt human proteome microarray) MRQPLSWGRWRAMLARTYGPGPSAGYRWASGAQGYVRNPPVGACDLQGELDRFGGISVRLARLDALDRLDAAAFQKGLQAAVQQWRSEGRTAVWLHIPILQSRFIAPAASLGFCFHHAESDSSTLTLWLREGPSRLPGYASHQVGVAGAVFDESTRKILVVQDRNKLKNMWKFPGGLSEPEEDIGDTAVREVFEETGIKSEFRSVLSIRQQHTNPGAFGKSDMYIICRLKPYSFTINFCQEECLRCEWMDLNDLAKTENTTPITSRVARLLLYGYREGFDKIDLTVEELPAVYTGLFYKLYHKELPENYKTMKGID

From article PMC8274477 (Frontiers in Cell and Developmental Biology, 2021)
